First the molecules themselves.
T1: human beta-Klotho (human, UniProt Q86Z14 1-1044)
T1 sequence (looked up): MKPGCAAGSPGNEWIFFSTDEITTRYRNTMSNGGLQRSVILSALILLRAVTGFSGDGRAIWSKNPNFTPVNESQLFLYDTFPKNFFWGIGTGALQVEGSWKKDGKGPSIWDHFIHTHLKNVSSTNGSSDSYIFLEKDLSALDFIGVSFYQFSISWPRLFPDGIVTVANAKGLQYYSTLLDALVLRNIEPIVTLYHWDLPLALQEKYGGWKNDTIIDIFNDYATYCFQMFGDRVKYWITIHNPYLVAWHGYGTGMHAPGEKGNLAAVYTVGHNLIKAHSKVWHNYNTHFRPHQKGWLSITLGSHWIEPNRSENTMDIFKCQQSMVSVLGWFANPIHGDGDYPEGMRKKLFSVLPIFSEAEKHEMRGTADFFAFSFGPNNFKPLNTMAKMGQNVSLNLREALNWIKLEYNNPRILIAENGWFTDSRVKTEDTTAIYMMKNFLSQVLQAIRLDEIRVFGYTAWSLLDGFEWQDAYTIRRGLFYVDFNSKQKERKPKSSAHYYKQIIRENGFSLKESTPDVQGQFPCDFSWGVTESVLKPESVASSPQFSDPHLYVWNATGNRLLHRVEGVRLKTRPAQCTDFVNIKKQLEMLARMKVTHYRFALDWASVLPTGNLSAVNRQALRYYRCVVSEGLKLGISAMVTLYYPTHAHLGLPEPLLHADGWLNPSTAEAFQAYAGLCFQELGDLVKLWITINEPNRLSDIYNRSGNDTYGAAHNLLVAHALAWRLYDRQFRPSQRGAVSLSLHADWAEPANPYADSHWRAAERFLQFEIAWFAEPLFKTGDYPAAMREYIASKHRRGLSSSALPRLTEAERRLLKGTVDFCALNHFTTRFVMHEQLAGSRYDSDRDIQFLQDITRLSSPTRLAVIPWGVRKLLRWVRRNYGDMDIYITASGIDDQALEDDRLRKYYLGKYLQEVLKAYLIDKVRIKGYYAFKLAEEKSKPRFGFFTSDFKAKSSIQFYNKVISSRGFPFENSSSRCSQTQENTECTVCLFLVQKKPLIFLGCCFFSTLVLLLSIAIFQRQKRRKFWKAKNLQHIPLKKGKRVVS

B1: (D102N) Met-FGF21 (ligand)
chain: MHPIPDSSPLLQFGGQVRQRYLYTDDAQQTEAHLEIREDGTVGGAADQSPESLLQLKALKPGVIQILGVKTSRFLCQRPDGALYGSLHFDPEACSFRELLLENGYNVYQSEAHGLPLHLPGNKSPHRDPAPRGPARFLPLPGLPPALPEPPGILAPQPPDVGSSDPLSMVGPSQGRSPSYAS
B2: (N121D) Met-FGF21 (ligand)
chain: MHPIPDSSPLLQFGGQVRQRYLYTDDAQQTEAHLEIREDGTVGGAADQSPESLLQLKALKPGVIQILGVKTSRFLCQRPDGALYGSLHFDPEACSFRELLLEDGYNVYQSEAHGLPLHLPGDKSPHRDPAPRGPARFLPLPGLPPALPEPPGILAPQPPDVGSSDPLSMVGPSQGRSPSYAS
B3: K122C Met-FGF21 derivative of Example 4 (ligand)
chain: MHPIPDSSPLLQFGGQVRQRYLYTDDAQQTEAHLEIREDGTVGGAADQSPESLLQLKALKPGVIQILGVKTSRFLCQRPDGALYGSLHFDPEACSFRELLLEDGYNVYQSEAHGLPLHLPGNCSPHRDPAPRGPARFLPLPGLPPALPEPPGILAPQPPDVGSSDPLSMVGPSQGRSPSYAS
modifications: S-122-[1-(2-{2-[2-(2-{2-[2-(2-{2-[(S)-4-carboxy-4-(17-carboxy-heptadecanoylamino)-butyrylamino]-ethoxy}-ethoxy)-acetylamino]-ethoxy}-ethoxy)-acetylamino]-ethylcarbamoyl}-ethyl)-2,5-dioxo-pyrrolidin-3-yl] on the thiol of Cys122
B4: D102T Met-FGF21 (ligand)
chain: MHPIPDSSPLLQFGGQVRQRYLYTDDAQQTEAHLEIREDGTVGGAADQSPESLLQLKALKPGVIQILGVKTSRFLCQRPDGALYGSLHFDPEACSFRELLLETGYNVYQSEAHGLPLHLPGNKSPHRDPAPRGPARFLPLPGLPPALPEPPGILAPQPPDVGSSDPLSMVGPSQGRSPSYAS
B5: (N121Q) Met-FGF21 (ligand)
chain: MHPIPDSSPLLQFGGQVRQRYLYTDDAQQTEAHLEIREDGTVGGAADQSPESLLQLKALKPGVIQILGVKTSRFLCQRPDGALYGSLHFDPEACSFRELLLEDGYNVYQSEAHGLPLHLPGQKSPHRDPAPRGPARFLPLPGLPPALPEPPGILAPQPPDVGSSDPLSMVGPSQGRSPSYAS
B6: (M168S) Met-FGF21 (ligand)
chain: MHPIPDSSPLLQFGGQVRQRYLYTDDAQQTEAHLEIREDGTVGGAADQSPESLLQLKALKPGVIQILGVKTSRFLCQRPDGALYGSLHFDPEACSFRELLLEDGYNVYQSEAHGLPLHLPGNKSPHRDPAPRGPARFLPLPGLPPALPEPPGILAPQPPDVGSSDPLSSVGPSQGRSPSYAS
B7: (Q15F) Met-FGF21 (ligand)
chain: MHPIPDSSPLLQFGGFVRQRYLYTDDAQQTEAHLEIREDGTVGGAADQSPESLLQLKALKPGVIQILGVKTSRFLCQRPDGALYGSLHFDPEACSFRELLLEDGYNVYQSEAHGLPLHLPGNKSPHRDPAPRGPARFLPLPGLPPALPEPPGILAPQPPDVGSSDPLSMVGPSQGRSPSYAS
B8: (179F, 180E, 181R) Met-FGF21 (ligand)
chain: MHPIPDSSPLLQFGGQVRQRYLYTDDAQQTEAHLEIREDGTVGGAADQSPESLLQLKALKPGVIQILGVKTSRFLCQRPDGALYGSLHFDPEACSFRELLLEDGYNVYQSEAHGLPLHLPGNKSPHRDPAPRGPARFLPLPGLPPALPEPPGILAPQPPDVGSSDPLSMVGPSQGRSPSFER
B9: (M168A) Met-FGF21 (ligand)
chain: MHPIPDSSPLLQFGGQVRQRYLYTDDAQQTEAHLEIREDGTVGGAADQSPESLLQLKALKPGVIQILGVKTSRFLCQRPDGALYGSLHFDPEACSFRELLLEDGYNVYQSEAHGLPLHLPGNKSPHRDPAPRGPARFLPLPGLPPALPEPPGILAPQPPDVGSSDPLSAVGPSQGRSPSYAS
B10: M168L Met-FGF21 (ligand)
chain: MHPIPDSSPLLQFGGQVRQRYLYTDDAQQTEAHLEIREDGTVGGAADQSPESLLQLKALKPGVIQILGVKTSRFLCQRPDGALYGSLHFDPEACSFRELLLEDGYNVYQSEAHGLPLHLPGNKSPHRDPAPRGPARFLPLPGLPPALPEPPGILAPQPPDVGSSDPLSLVGPSQGRSPSYAS
B11: (145aP, 145bM, L146V, P149E, G151E, I152D, A154R, P155G, Q156H, P157L, P158E, D159S, V160D, G161M, S162F, D164S, S167E, M168T, V169D, G170S, P171M, S172D, … (ligand)
chain: MHPIPDSSPLLQFGGQVRQRYLYTDDAQQTEAHLEIREDGTVGGAADQSPESLLQLKALKPGVIQILGVKTSRFLCQRPDGALYGSLHFDPEACSFRELLLEDGYNVYQSEAHGLPLHLPGNKSPHRDPAPRGPARFLPLPGLPPAPMVPEEPEDLRGHLESDMFSSPLETDSMDPFGLVTGLEAVRSPSFEK
B12: (-14E, -13E, -12A, -11E, -10A, -9G, -8G, -7A, -6G, -5G, -4S, -3G, -2G, -1S, K56R, 59R, 69R, 122R) FGF21 derivative of Example 51 (ligand)
chain: EEAEAGGAGGSGGSHPIPDSSPLLQFGGQVRQRYLYTDDAQQTEAHLEIREDGTVGGAADQSPESLLQLRALRPGVIQILGVRTSRFLCQRPDGALYGSLHFDPEACSFRELLLEDGYNVYQSEAHGLPLHLPGNRSPHRDPAPRGPARFLPLPGLPPALPEPPGILAPQPPDVGSSDPLSMVGPSQGRSPSYAS
modifications: N-alpha-1-[(S)-4-carboxy-4-(17-carboxy-heptadecanoylamino)-butyryl] on the N-terminal alpha amino group
B13: (S71C, D102E, N121Q, L166F, S167G, M168L, 169aT, P171L, S172E, Q173A, G174V, Y179F, A180E, S181K) Gly-FGF21 (ligand)
chain: GHPIPDSSPLLQFGGQVRQRYLYTDDAQQTEAHLEIREDGTVGGAADQSPESLLQLKALKPGVIQILGVKTCRFLCQRPDGALYGSLHFDPEACSFRELLLEEGYNVYQSEAHGLPLHLPGQKSPHRDPAPRGPARFLPLPGLPPALPEPPGILAPQPPDVGSSDPFGLVTGLEAVRSPSFEK
B14: (-1G, 71C, 121Q, 166F, 167G, 168L, 169aT, 171L, 172E, 173A, 174V, 179F, 180E, 181K) FGF21 derivative of Example 16 (ligand)
chain: GHPIPDSSPLLQFGGQVRQRYLYTDDAQQTEAHLEIREDGTVGGAADQSPESLLQLKALKPGVIQILGVKTCRFLCQRPDGALYGSLHFDPEACSFRELLLEDGYNVYQSEAHGLPLHLPGQKSPHRDPAPRGPARFLPLPGLPPALPEPPGILAPQPPDVGSSDPFGLVTGLEAVRSPSFEK
modifications: S-71-({2-[2-(2-{2-[2-(2-{2-[(S)-4-carboxy-4-(17-carboxy-heptadecanoylamino)-butyrylamino]-ethoxy}-ethoxy)-acetylamino]-ethoxy}-ethoxy)-acetylamino]-ethylcarbamoyl}-methyl) on the thiol of Cys71
B15: (166F, 167G, 168L, 169aT, 171L, 172E, 173A, 174V, 179F, 180E, 181K) (Compound Z) (ligand)
chain: MHPIPDSSPLLQFGGQVRQRYLYTDDAQQTEAHLEIREDGTVGGAADQSPESLLQLKALKPGVIQILGVKTSRFLCQRPDGALYGSLHFDPEACSFRELLLEDGYNVYQSEAHGLPLHLPGNKSPHRDPAPRGPARFLPLPGLPPALPEPPGILAPQPPDVGSSDPFGLVTGLEAVRSPSFEK
B16: (S71C, D102E, N121Q, L166F, S167G, M168L, 169aT, P171L, S172E, Q173A, G174V, Y179F, A180E, S181K) Ala-FGF21 (ligand)
chain: AHPIPDSSPLLQFGGQVRQRYLYTDDAQQTEAHLEIREDGTVGGAADQSPESLLQLKALKPGVIQILGVKTCRFLCQRPDGALYGSLHFDPEACSFRELLLEEGYNVYQSEAHGLPLHLPGQKSPHRDPAPRGPARFLPLPGLPPALPEPPGILAPQPPDVGSSDPFGLVTGLEAVRSPSFEK
B17: (S71C, L166F, S167G, M168L, 169aT, P171L, S172E, Q173A, G174V, Y179F, A180E, S181K) Gly-FGF21 (ligand)
chain: GHPIPDSSPLLQFGGQVRQRYLYTDDAQQTEAHLEIREDGTVGGAADQSPESLLQLKALKPGVIQILGVKTCRFLCQRPDGALYGSLHFDPEACSFRELLLEDGYNVYQSEAHGLPLHLPGNKSPHRDPAPRGPARFLPLPGLPPALPEPPGILAPQPPDVGSSDPFGLVTGLEAVRSPSFEK
B18: (169aT, 171L, 172E, 173A, 174V, 179F, 180E, 181K) Met-FGF21 (ligand)
chain: MHPIPDSSPLLQFGGQVRQRYLYTDDAQQTEAHLEIREDGTVGGAADQSPESLLQLKALKPGVIQILGVKTSRFLCQRPDGALYGSLHFDPEACSFRELLLEDGYNVYQSEAHGLPLHLPGNKSPHRDPAPRGPARFLPLPGLPPALPEPPGILAPQPPDVGSSDPLSMVTGLEAVRSPSFEK
B19: (S71C, N121Q, L166F, S167G, M168L, 169aT, P171L, S172E, Q173A, G174V, Y179F, A180E, S181K) Gly-FGF21 (ligand)
chain: GHPIPDSSPLLQFGGQVRQRYLYTDDAQQTEAHLEIREDGTVGGAADQSPESLLQLKALKPGVIQILGVKTCRFLCQRPDGALYGSLHFDPEACSFRELLLEDGYNVYQSEAHGLPLHLPGQKSPHRDPAPRGPARFLPLPGLPPALPEPPGILAPQPPDVGSSDPFGLVTGLEAVRSPSFEK
B20: (-1G, 71C, 166F, 167G, 168L, 169aT, 171L, 172E, 173A, 174V, 179F, 180E, 181K) FGF21 derivative of Example 15 (ligand)
chain: GHPIPDSSPLLQFGGQVRQRYLYTDDAQQTEAHLEIREDGTVGGAADQSPESLLQLKALKPGVIQILGVKTCRFLCQRPDGALYGSLHFDPEACSFRELLLEDGYNVYQSEAHGLPLHLPGNKSPHRDPAPRGPARFLPLPGLPPALPEPPGILAPQPPDVGSSDPFGLVTGLEAVRSPSFEK
modifications: S-71-({2-[2-(2-{2-[2-(2-{2-[(S)-4-carboxy-4-(17-carboxy-heptadecanoylamino)-butyrylamino]-ethoxy}-ethoxy)-acetylamino]-ethoxy}-ethoxy)-acetyl-amino]-ethylcarbamoyl}-methyl) on the thiol of Cys71

This experiment deals with T1, human beta-Klotho. Description: cell-based or functional assay.
With B1, the “pERK-HEK293-Beta-klotho without HSA [EC50 (nM)] Median Value” (shortened to “pERK-HEK293-Beta-klotho without HSA”) came out at 0.7 nM.
As to B2, the “pERK-HEK293-Beta-klotho without HSA” value turned out to be 1.2 nM.
The same measure for B3: 0.9 nM; for B4: 1.7 nM.
The same measure for B5: 1 nM; for B6: 100 nM; for B7: 3.3 nM.
The figure for B8 is 5.9 nM.
Consider B9, for which the “pERK-HEK293-Beta-klotho without HSA” value was found to be 100 nM.
Take B10: the “pERK-HEK293-Beta-klotho without HSA” value was 1.4 nM.
The figure for B11 is 17 nM.
The figure for B12 is 12 nM; for B13 it is 1.8 nM.
The same measure for B14: 1.4 nM; for B15: 1 nM; for B16: 3.3 nM.
B17: the “pERK-HEK293-Beta-klotho without HSA” value came to 1.4 nM.
The figure for B18 is 3.9 nM.
With B19, the “pERK-HEK293-Beta-klotho without HSA” value came to 1.1 nM.
Turning to B20, the “pERK-HEK293-Beta-klotho without HSA” value was 1.6 nM.

(Values after patent publication US20100216715A1 (Novo Nordisk, published 2010).)
